According to patent US20260028677A1, “Compositions and Methods for Modulating Genetic Drivers” (Flagship Pioneering Innovations VII, LLC, priority 2022, published 2026):
“Also recorded” adds a separate entry of the source.

What was measured:
[1] = system: lung cancer (A549), liver cancer (HepG2), and colon cancer (HCT-116) cells; test: WST-1 cell proliferation assay, transient over-expression in multiple cell lines; assay type: cell-based; conditions: genetic overexpression in multiple cell lines (A549, HepG2, HCT-116); WST-1 48 hours after transfection; vs pcDNA3.1-Myc negative control
Procedure: FIGS. 2A-2C show analysis of cell viability using the WST-1 assay on lung cancer (A549), liver cancer (HepG2), and colon cancer (HCT-116). Cells were transfected with SEQ ID NO: 4538, SEQ ID NO: 5392, and SEQ ID NO: 4335 individually. pcDNA3.1-Myc tagged was used for negative control. After plasmid transfection, cell proliferation was measured 48 hours later using WST-1 assay. Data are presented as the mean±SD of three independent experiments performed in triplicate. FIG. 2A) WST-1 results in HCT-116 cells. Top: low serum, Bottom: High serum. FIG. 2B) WST-1 results in HepG2 cells. Top: low serum, Bottom: High serum. FIG. 2C) WST-1 results in A549 cells. Top: low serum, Bottom: High serum.
Experimental Design: Protein overexpression plasmids encoding Target Proteins or controls were transiently transfected into multiple cell lines. 24 hours later proliferation was measured using WST-1 assay.
(§1) Materials and Methods: Seed the cells of interest into 96-well plate at a density of 4,000 cells per well in 100 μL of cell culture medium. Incubate the cells in a humidified incubator at 37° C. with 5% CO2 for 24 hours. Dilute the Lipofectamine 3000 (Thermo Fisher) in Opti-MEM medium (Thermo Fisher) to a final concentration of 30 μL/mL. […] Measure the absorbance at 450 nm using a microplate reader. A reference wavelength of 650 nm can be used to correct for background absorbance. Calculate the percentage of viable cells in each well by subtracting the absorbance of the blank (medium only) from the absorbance of each well and expressing the results as a percentage of the control group.

[2] = system: colon cancer cell line HCT116 cells; test: WST-1 cell proliferation assay, transient over-expression in HCT116; assay type: cell-based; conditions: transient over-expression from pcDNA3.1 plasmid with Lipofectamine 3000 in HCT116; WST-1 48 hours after transfection; high serum conditions; vs control
Procedure: WST-1 assay on HCT-116 to examine their cell viability and growth when transiently over-expressed SEQ ID NO: 5391 using Lipofectamine 3000. After plasmid transfection, cell proliferation was measured 48 hours later using WST-1 assay. Data are presented as the mean±SD of three independent experiments performed in triplicate.
Protein overexpression plasmids encoding Target Proteins or controls were transiently transfected into multiple cell lines. 24 hours later proliferation was measured using WST-1 assay.
as §1, with “Seed” for “Materials and Methods: Seed”

Row | Molecule | proliferation of cells (WST-1 assay) [1] | proliferation of colon cancer cells (WST-1 assay) [2]
1 | SEQ ID NO: 4335: target protein, extracellular transmembrane protein, over-expressed from plasmid (protein, listed as Homo sapiens) MNLNPRLRLQVISFHPHPKALAVTLLPALTQSLCLCMASCVYSGPKGFLFLFFPQTAQEKHMKNIT | significantly increases the proliferation | 
2 | SEQ ID NO: 5392: target protein, extracellular transmembrane protein, over-expressed from plasmid (protein, listed as Homo sapiens) MVEKSHPSSLPTLPQPLNHCPETYMLLSAAPSGASQLLSTLTLFLKKHRMDIRTISLRMLLSHTGKLAL | significantly increases the proliferation | 
3 | SEQ ID NO: 4538: target protein, extracellular transmembrane protein, over-expressed from plasmid (protein, listed as Homo sapiens) LARLFLRPRGPRSPIIQFRRVTGAAVASQGAGSLSPALLPLAPSPRPRRAGLRGQGPSGEGYHLTWKKMSSLEKKHSNVIVQNSLNIHNR | significantly increases the proliferation | 
4 | SEQ ID NO: 5391: novel, un-annotated target protein (predicted TM protein) carrying a TCGA mutation site, over-expressed from pcDNA3.1 plasmid (protein, listed as Homo sapiens) LLLLIIWVRVTFMSCSTHREGLQLRYSLLKPARPRTHREEETTPDAPPLRAVTLTVKVCGITPEVRETTNPPEETPDASEHLKEQTLDTPSLRTETPRQFAASFLKAVRPRTHQFWTQKDLSRLRKWQAIYEEGRDSKRWSQVL |  | significantly increases the proliferation; also recorded: increases the proliferation of colon cancer cells
5 | SEQ ID NO: 5391_P31L: mutant version of SEQ ID NO: 5391 that contains the TCGA P31L mutation (protein, listed as Homo sapiens) LLLLIIWVRVTFMSCSTHREGLQLRYSLLKLARPRTHREEETTPDAPPLRAVTLTVKVCGITPEVRETTNPPEETPDASEHLKEQTLDTPSLRTETPRQFAASFLKAVRPRTHQFWTQKDLSRLRKWQAIYEEGRDSKRWSQVL |  | effect on proliferation is significantly more pronounced
